Biological target: GST-tagged CDK2 (human cyclin-dependent kinase 2, 1-298) (human) (UniProt P24941)
Experiment: SPR

Kd: 2.8 nM
Substance: Bovine cyclin A (171-432 with a C-terminal 6His tag) (from UniProt P30274 171-430) (domain or fragment)
